Target: tropomyosin of native porcine cardiac thin filaments (porcine (endogenous in pig heart)) (UniProt P42639)
Assay: cryo-EM structure

C0C1 fragment of human cardiac myosin binding protein-C (C0-PA-C1) (domain or fragment)
frequency of segments with C1 in the C1-S position (C1 tethers actin and Tm): 36%

Source: PMC6281772
